From patent publication US20230183354A1 (IMMIOS HOLDING B V, published 2023)

Experiments:
[1] = molecular target: human CD103 (integrin Alpha-E) / human integrin Beta-7 heterodimer on cells (human) (UniProt P38570); assay: flow cytometry competition on CD103+CD8+ T cells; pre-incubation with unlabeled BERACT; table n=2
[2] = molecular target: human CD103 (integrin Alpha-E) / human integrin Beta-7 heterodimer on cells (human) (UniProt P38570); assay: flow cytometry competition on CD103+CD8+ T cells; pre-incubation with unlabeled 01A; table n=1
[3] = molecular target: human CD103 (integrin Alpha-E) / human integrin Beta-7 heterodimer on cells (human) (UniProt P38570); assay: flow cytometry competition on CD103+CD8+ T cells; pre-incubation with unlabeled 05A; table n=1
[4] = molecular target: human CD103 (integrin Alpha-E) / human integrin Beta-7 heterodimer on cells (human) (UniProt P38570); assay: flow cytometry competition on CD103+CD8+ T cells; pre-incubation with unlabeled 06A; table n=2
[5] = molecular target: human CD103 (integrin Alpha-E) / human integrin Beta-7 heterodimer on cells (human) (UniProt P38570); assay: flow cytometry competition on CD103+CD8+ T cells; pre-incubation with unlabeled 02A; table n=1
[6] = molecular target: human CD103 (integrin Alpha-E) / human integrin Beta-7 heterodimer on cells (human) (UniProt P38570); assay: flow cytometry competition on CD103+CD8+ T cells; pre-incubation with unlabeled 03A; table n=2
[7] = molecular target: human CD103 (integrin Alpha-E) / human integrin Beta-7 heterodimer on cells (human) (UniProt P38570); assay: flow cytometry competition on CD103+CD8+ T cells; pre-incubation with unlabeled IgG (f2); table n=2
[8] = molecular target: human CD103 (integrin Alpha-E) / human integrin Beta-7 heterodimer on cells (human) (UniProt P38570); assay: flow cytometry competition on CD103+CD8+ T cells; pre-incubation with unlabeled 05A; table n=2
[9] = molecular target: human CD103 (integrin Alpha-E) / human integrin Beta-7 heterodimer on cells (human) (UniProt P38570); assay: flow cytometry competition on CD103+CD8+ T cells; pre-incubation with unlabeled MCA708 (f4); table n=1
[10] = molecular target: human CD103 (integrin Alpha-E) / human integrin Beta-7 heterodimer on cells (human) (UniProt P38570); assay: flow cytometry competition on CD103+CD8+ T cells; pre-incubation with unlabeled 06A; table n=1
[11] = molecular target: human CD103 (integrin Alpha-E) / human integrin Beta-7 heterodimer on cells (human) (UniProt P38570); assay: flow cytometry competition on CD103+CD8+ T cells; pre-incubation with unlabeled 01A; table n=2
[12] = molecular target: human CD103 (integrin Alpha-E) / human integrin Beta-7 heterodimer on cells (human) (UniProt P38570); assay: flow cytometry, tumor digest OC433, CD3 positive cells; Control panel Q3 2,12
[13] = molecular target: human CD103 (integrin Alpha-E) / human integrin Beta-7 heterodimer on cells (human) (UniProt P38570); assay: flow cytometry competition on CD103+CD8+ T cells; pre-incubation with unlabeled MCA708 (f4); table n=2
[14] = molecular target: human CD103 (integrin Alpha-E) / human integrin Beta-7 heterodimer on cells (human) (UniProt P38570); assay: flow cytometry competition on CD103+CD8+ T cells; pre-incubation with unlabeled 07A; table n=2
[15] = molecular target: human CD103 (integrin Alpha-E) / human integrin Beta-7 heterodimer on cells (human) (UniProt P38570); assay: flow cytometry competition on CD103+CD8+ T cells; pre-incubation with unlabeled IgG (f2); table n=1
[16] = molecular target: human CD103 (integrin Alpha-E) / human integrin Beta-7 heterodimer on cells (human) (UniProt P38570); assay: flow cytometry competition on CD103+CD8+ T cells; pre-incubation with unlabeled 03A; table n=1
[17] = molecular target: human CD103 (integrin Alpha-E) / human integrin Beta-7 heterodimer on cells (human) (UniProt P38570); assay: flow cytometry, tumor digest OC433, CD3 positive cells; Control panel Q2 0,53
[18] = molecular target: human CD103 (integrin Alpha-E) / human integrin Beta-7 heterodimer on cells (human) (UniProt P38570); assay: flow cytometry competition on CD103+CD8+ T cells; pre-incubation with unlabeled 07A; table n=1
[19] = molecular target: human CD103 (integrin Alpha-E) / human integrin Beta-7 heterodimer on cells (human) (UniProt P38570); assay: flow cytometry competition on CD103+CD8+ T cells; pre-incubation with unlabeled 02A; table n=2
[20] = molecular target: human CD103 (integrin Alpha-E) / human integrin Beta-7 heterodimer on cells (human) (UniProt P38570); assay: flow cytometry competition on CD103+CD8+ T cells; pre-incubation with unlabeled BERACT; table n=1
[21] = molecular target: human CD103 (integrin Alpha-E) / human integrin Beta-7 heterodimer on cells (human) (UniProt P38570); assay: flow cytometry, tumor digest OC433, AF647-conjugated control Fab, direct read-out
[22] = molecular target: human CD103 (integrin Alpha-E) / human integrin Beta-7 heterodimer on cells (human) (UniProt P38570); assay: flow cytometry, tumor digest OC433, non-labeled control Fab with secondary anti-Fab reagent (APC); secondary antibody alone Q2 4,65
[23] = molecular target: human CD103 (integrin Alpha-E) / human integrin Beta-7 heterodimer on cells (human) (UniProt P38570); assay: flow cytometry, tumor digest OC433, non-labeled control Fab with secondary anti-Fab reagent (APC); secondary antibody alone Q3 2,44
[24] = molecular target: T1, human CD103 (integrin Alpha-E) / human integrin Beta-7 heterodimer on cells (human, UniProt P38570 19-1179; P26010 20-798); assay: cell ELISA on CHO.K1-humanCD103/beta7 cells, abs 450-610
T1 construct: The same id is used for native CD103 on human CD103+CD8+ T cells (tumor digests, TGF-beta induced T cells); the assay field tells which cells; also called hCD103/hBeta7; CHO.K1-hCD103/hBeta7

[25] = molecular target: T2, human integrin Alpha-4 / human integrin Beta-7 heterodimer on CHO-K1 cells (human, UniProt P13612 34-1032; P26010 20-798); assay: cell ELISA on CHO.K1-humanAlpha4/beta7 cells, abs 450-610
T2 construct: Used as the control for reactivity with hBeta7; also called hAlpha4/hBeta7; CHO.K1-hAlpha4/hBeta7

[26] = molecular target: T3, murine CD103 (mouse, UniProt Q60677 20-1167); assay: flow cytometry on mouse spleen and thymus cells
T3 construct: whole, on cells; also called murine CD103+ T cells; mouse CD103
T3 sequence (looked up): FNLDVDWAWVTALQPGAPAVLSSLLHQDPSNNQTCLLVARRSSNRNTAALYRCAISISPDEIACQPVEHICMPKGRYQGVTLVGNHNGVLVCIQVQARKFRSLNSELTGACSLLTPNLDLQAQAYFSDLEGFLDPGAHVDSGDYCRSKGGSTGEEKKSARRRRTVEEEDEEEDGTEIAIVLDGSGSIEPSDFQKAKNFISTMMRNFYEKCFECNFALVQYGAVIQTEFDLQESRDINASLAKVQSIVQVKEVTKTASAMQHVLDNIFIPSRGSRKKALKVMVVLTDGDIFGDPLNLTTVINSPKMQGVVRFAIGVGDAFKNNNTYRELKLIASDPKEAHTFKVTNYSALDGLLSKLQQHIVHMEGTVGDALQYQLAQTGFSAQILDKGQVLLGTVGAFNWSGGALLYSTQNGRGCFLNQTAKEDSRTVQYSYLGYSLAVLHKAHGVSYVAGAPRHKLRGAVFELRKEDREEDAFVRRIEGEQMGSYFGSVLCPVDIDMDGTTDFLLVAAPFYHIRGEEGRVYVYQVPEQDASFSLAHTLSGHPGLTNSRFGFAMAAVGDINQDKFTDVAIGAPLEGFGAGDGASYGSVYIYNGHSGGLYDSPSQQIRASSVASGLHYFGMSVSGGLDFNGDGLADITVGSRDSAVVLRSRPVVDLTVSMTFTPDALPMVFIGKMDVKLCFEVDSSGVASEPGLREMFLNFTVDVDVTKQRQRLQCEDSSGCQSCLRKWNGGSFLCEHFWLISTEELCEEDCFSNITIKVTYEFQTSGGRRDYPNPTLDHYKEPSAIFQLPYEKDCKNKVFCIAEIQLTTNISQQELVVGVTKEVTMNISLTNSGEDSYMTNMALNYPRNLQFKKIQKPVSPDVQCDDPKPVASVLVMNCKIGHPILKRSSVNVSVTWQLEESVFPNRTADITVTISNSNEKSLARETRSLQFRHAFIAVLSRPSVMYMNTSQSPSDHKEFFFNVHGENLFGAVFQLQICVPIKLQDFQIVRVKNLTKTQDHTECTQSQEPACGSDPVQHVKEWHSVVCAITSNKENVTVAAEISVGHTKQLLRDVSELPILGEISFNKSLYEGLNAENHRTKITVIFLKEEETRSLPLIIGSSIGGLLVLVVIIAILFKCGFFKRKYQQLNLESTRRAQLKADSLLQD
Procedure: Additional aliquots were stained with relevant isotype controls or as fluorescence minus one controls (“FMO” controls are cells stained with all the fluorophores minus one fluorophore; the relevant isotype controls contain either a directly labeled unspecific isotype antibody or an unspecific isotype antibody combined with secondary detection reagent). Percentage binding of fluorescently labeled mAbs was determined using flow cytometry. Maximum binding was set at 100%. […] Data analysis was performed with FlowJo v10 (Tree Star) and surface receptor levels were expressed as mean fluorescent intensity (MFI).

CD103 (Ber-ACT8) antibody (BD)
% binding of the fluorescently labeled mAb (IgG pre-incubation = 100) [1]: 3.5% | % binding of the fluorescently labeled mAb (IgG pre-incubation = 100) [2]: 0.9% | % binding of the fluorescently labeled mAb (IgG pre-incubation = 100) [3]: 50.9% | % binding of the fluorescently labeled mAb (IgG pre-incubation = 100) [4]: 103% | % binding of the fluorescently labeled mAb (IgG pre-incubation = 100) [5]: 1.4% | % binding of the fluorescently labeled mAb (IgG pre-incubation = 100) [6]: 101% | % binding of the fluorescently labeled mAb (IgG pre-incubation = 100) [7]: 100% | % binding of the fluorescently labeled mAb (IgG pre-incubation = 100) [8]: 60.6% | % binding of the fluorescently labeled mAb (IgG pre-incubation = 100) [9]: 115% | % binding of the fluorescently labeled mAb (IgG pre-incubation = 100) [10]: 96.6% | % binding of the fluorescently labeled mAb (IgG pre-incubation = 100) [11]: 2.3% | % of CD3 positive cells in Q3 (CD8- CD103+) [12]: 7.75% | % binding of the fluorescently labeled mAb (IgG pre-incubation = 100) [13]: 109% | % binding of the fluorescently labeled mAb (IgG pre-incubation = 100) [14]: 29.2% | % binding of the fluorescently labeled mAb (IgG pre-incubation = 100) [15]: 100% | % binding of the fluorescently labeled mAb (IgG pre-incubation = 100) [16]: 97% | % of CD3 positive cells in Q2 (CD8+ CD103+) [17]: 13.4% | % binding of the fluorescently labeled mAb (IgG pre-incubation = 100) [18]: 27.2% | % binding of the fluorescently labeled mAb (IgG pre-incubation = 100) [19]: 2.9% | % binding of the fluorescently labeled mAb (IgG pre-incubation = 100) [20]: 1.9%

Alexa647.mFab control
% of cells in Q2 (CD8+ CD103+) [21]: 2.58% | % of cells in Q3 (CD8- CD103+) [21]: 1.29%

hFab isotype
% of cells in Q2 (CD8+ CD103+) [22]: 4.64% | % of cells in Q3 (CD8- CD103+) [23]: 3.71%

B1: hCD103.02A (antibody, V domains shown)
VH: EVQLQESGPSLVKPSQTLSLTCSVTGDSITSGYWNWIRKFPGNKLEYMGYITYSGSTYYNPSLKSRISITRDTSKNQYYLQFNSVTTEDTATYYCARGYYGSDAMDYWGQGTSVTVSS
VL: DIVMTQSHKFMSTSVGDRVSITCKASQDVSTAVAWYQQKPGQSPKLLIYSASYRYTGVPDRFTGSGSGTDFTFTISSVQAEDLAVYYCQQHYSPPWTFGGGTKLEIK
notes: also called clone 02A
EC50 (read off the curve) [24]: ~10 ng/mL | binding result [25]: no binding | binding result [26]: no binding
